Data published in patent US20180030151A1 (MOGAM INSTITUTE FOR BIOMEDICAL RESEARCH, published 2018).
Where two headings read alike, the source gives them in different places.

Assays:
Test in all cases: cell-based or functional assay
[1] = biological target: T1, recombinant human TFPI (tissue factor pathway inhibitor) (human, UniProt P10646 29-304)
[2] = biological target: TFPI in FVIII-deficient plasma (sample dilution)
[3] = biological target: T1, recombinant human TFPI (tissue factor …); remark: listed apart in the source
[4] = biological target: T1, recombinant human TFPI (tissue factor …); remark: listed apart in the source
[5] = biological target: T1, recombinant human TFPI (tissue factor …); remark: listed apart in the source
[6] = biological target: T1, recombinant human TFPI (tissue factor …); remark: listed apart in the source
[7] = biological target: T1, recombinant human TFPI (tissue factor …); remark: listed apart in the source
[8] = biological target: T1, recombinant human TFPI (tissue factor …); remark: listed apart in the source
[9] = biological target: T1, recombinant human TFPI (tissue factor …); remark: listed apart in the source
[10] = biological target: T1, recombinant human TFPI (tissue factor …); remark: listed apart in the source
[11] = biological target: T1, recombinant human TFPI (tissue factor …); remark: listed apart in the source
[12] = biological target: T1, recombinant human TFPI (tissue factor …); remark: listed apart in the source

B1: clone 1023 (antibody, V domains shown)
VH: EVQLVESGGGLVKPGGSLRLSCAASGFTFSSYAMNWVRQAPGKGLEWVGTITTGGSYTYYADSVDGRFTISRDNAKNSLYLQMNSLRAEDTAVYYCARQDGNFLMDYWGQGTLVTVSS
VL: DVVMTQTPLSLPVTLGQPASISCKSSQSLLDIDGKTYLNWLQQRPGQSPKRLIYLVSKLDSGVPDRFTGSGSGTDFTLKISRVEAEDVGVYYCWQGTHFPFTFGQGTKVEIKR
notes: scFv on yeast at selection; human IgG4/kappa IgG as purified
- effect of inhibiting TFPI, FXa activity assay, Ab 10 nM [1]: ~84%
- effect of inhibiting TFPI, FXa activity assay, Ab 20 nM [1]: ~86%
- ETP vs negative control, thrombin generation assay, Ab 2.5 nM [2]: ~309%
- thrombin peak vs blank, thrombin generation assay, Ab 2.5 nM [2]: ~401%
- A405, TF/FVIIa/FX complex assay, Ab 1.56 nM [3]: 0.143
- A405, TF/FVIIa/FX complex assay, Ab 3.13 nM [3]: 0.152
- A405, TF/FVIIa/FX complex assay, Ab 6.25 nM [3]: 0.168
- A405, TF/FVIIa/FX complex assay, Ab 12.5 nM [3]: 0.228
- A405, TF/FVIIa/FX complex assay, Ab 25 nM [3]: 0.795
- A405, TF/FVIIa/FX complex assay, Ab 50 nM [3]: 0.947
- A405, TF/FVIIa/FX complex assay, Ab 100 nM [3]: 0.951
- % of Normalized, TF/FVIIa/FX complex assay, Ab 1.56 nM [4]: 15.6%
- % of Normalized, TF/FVIIa/FX complex assay, Ab 3.13 nM [4]: 16.5%
- % of Normalized, TF/FVIIa/FX complex assay, Ab 6.25 nM [4]: 18.2%
- % of Normalized, TF/FVIIa/FX complex assay, Ab 12.5 nM [4]: 24.8%
- % of Normalized, TF/FVIIa/FX complex assay, Ab 25 nM [4]: 86.5%
- % of Normalized, TF/FVIIa/FX complex assay, Ab 50 nM [4]: 103%
- % of Normalized, TF/FVIIa/FX complex assay, Ab 100 nM [4]: 104%
- A405, TF/FVIIa/FX complex assay, Ab 1.56 nM [5]: 0.153
- A405, TF/FVIIa/FX complex assay, Ab 3.13 nM [5]: 0.167
- A405, TF/FVIIa/FX complex assay, Ab 6.25 nM [5]: 0.19
- A405, TF/FVIIa/FX complex assay, Ab 12.5 nM [5]: 0.259
- A405, TF/FVIIa/FX complex assay, Ab 25 nM [5]: 0.923
- A405, TF/FVIIa/FX complex assay, Ab 50 nM [5]: 0.905
- A405, TF/FVIIa/FX complex assay, Ab 100 nM [5]: 0.935
- % of Normalized, TF/FVIIa/FX complex assay, Ab 1.56 nM [6]: 16%
- % of Normalized, TF/FVIIa/FX complex assay, Ab 3.13 nM [6]: 17.5%
- % of Normalized, TF/FVIIa/FX complex assay, Ab 6.25 nM [6]: 19.9%
- % of Normalized, TF/FVIIa/FX complex assay, Ab 12.5 nM [6]: 27.1%
- % of Normalized, TF/FVIIa/FX complex assay, Ab 25 nM [6]: 96.6%
- % of Normalized, TF/FVIIa/FX complex assay, Ab 50 nM [6]: 94.8%
- % of Normalized, TF/FVIIa/FX complex assay, Ab 100 nM [6]: 98%
- A405, TF/FVIIa/FX complex assay, Ab 1.56 nM [7]: 0.135
- A405, TF/FVIIa/FX complex assay, Ab 3.13 nM [7]: 0.16
- A405, TF/FVIIa/FX complex assay, Ab 6.25 nM [7]: 0.185
- A405, TF/FVIIa/FX complex assay, Ab 12.5 nM [7]: 0.29
- A405, TF/FVIIa/FX complex assay, Ab 25 nM [7]: 0.914
- A405, TF/FVIIa/FX complex assay, Ab 50 nM [7]: 0.938
- A405, TF/FVIIa/FX complex assay, Ab 100 nM [7]: 0.939
- % of Normalized, TF/FVIIa/FX complex assay, Ab 1.56 nM [8]: 14.7%
- % of Normalized, TF/FVIIa/FX complex assay, Ab 3.13 nM [8]: 17.5%
- % of Normalized, TF/FVIIa/FX complex assay, Ab 6.25 nM [8]: 20.2%
- % of Normalized, TF/FVIIa/FX complex assay, Ab 12.5 nM [8]: 31.6%
- % of Normalized, TF/FVIIa/FX complex assay, Ab 25 nM [8]: 99.8%
- % of Normalized, TF/FVIIa/FX complex assay, Ab 50 nM [8]: 102%
- % of Normalized, TF/FVIIa/FX complex assay, Ab 100 nM [8]: 103%
- A405, TF/FVIIa/FX complex assay (FX 5 nM), Ab 1.56 nM [9]: 0.05
- A405, TF/FVIIa/FX complex assay (FX 5 nM), Ab 3.13 nM [9]: 0.048
- A405, TF/FVIIa/FX complex assay (FX 5 nM), Ab 6.25 nM [9]: 0.056
- A405, TF/FVIIa/FX complex assay (FX 5 nM), Ab 12.5 nM [9]: 0.079
- A405, TF/FVIIa/FX complex assay (FX 5 nM), Ab 25 nM [9]: 0.216
- A405, TF/FVIIa/FX complex assay (FX 5 nM), Ab 50 nM [9]: 0.652
- A405, TF/FVIIa/FX complex assay (FX 5 nM), Ab 100 nM [9]: 0.81
- % of Normalized, TF/FVIIa/FX complex assay (FX 5 nM), Ab 1.56 nM [10]: 6.2%
- % of Normalized, TF/FVIIa/FX complex assay (FX 5 nM), Ab 3.13 nM [10]: 5.9%
- % of Normalized, TF/FVIIa/FX complex assay (FX 5 nM), Ab 6.25 nM [10]: 6.9%
- % of Normalized, TF/FVIIa/FX complex assay (FX 5 nM), Ab 12.5 nM [10]: 9.7%
- % of Normalized, TF/FVIIa/FX complex assay (FX 5 nM), Ab 25 nM [10]: 26.6%
- % of Normalized, TF/FVIIa/FX complex assay (FX 5 nM), Ab 50 nM [10]: 80.5%
- % of Normalized, TF/FVIIa/FX complex assay (FX 5 nM), Ab 100 nM [10]: 100%
- A405, TF/FVIIa/FX complex assay, Ab 1.56 nM [11]: 0.041
- A405, TF/FVIIa/FX complex assay, Ab 3.13 nM [11]: 0.051
- A405, TF/FVIIa/FX complex assay, Ab 6.25 nM [11]: 0.071
- A405, TF/FVIIa/FX complex assay, Ab 12.5 nM [11]: 0.088
- A405, TF/FVIIa/FX complex assay, Ab 25 nM [11]: 0.371
- A405, TF/FVIIa/FX complex assay, Ab 50 nM [11]: 0.681
- A405, TF/FVIIa/FX complex assay, Ab 100 nM [11]: 0.846
- % of Normalized, TF/FVIIa/FX complex assay, Ab 1.56 nM [12]: 4.8%
